Results as given in patent US12679878B2, “CRF2 receptor agonists and their use in therapy” (SANOFI, priority 2020, dated 2026).
Starred links: 1 amine or outer side, 2 acyl side, 3 side chain; linkers in the order of their positions; H or OH if unused. Non-standard residues stand in square brackets, D forms with d. Groups on a side chain read outwards from the residue. No end group written: not given here. *: point of attachment. C16 diacid = O=C(O)CCCCCCCCCCCCCCC(=O)*; γGlu = O=C(O)[C@H](CCC(=O)[*:2])N[*:1]; Aib = CC(C)(N)C(=O)O

T1: CRF1R receptor (anti-target) (UniProt P34998 24-415, limits assumed)
T1 sequence (looked up): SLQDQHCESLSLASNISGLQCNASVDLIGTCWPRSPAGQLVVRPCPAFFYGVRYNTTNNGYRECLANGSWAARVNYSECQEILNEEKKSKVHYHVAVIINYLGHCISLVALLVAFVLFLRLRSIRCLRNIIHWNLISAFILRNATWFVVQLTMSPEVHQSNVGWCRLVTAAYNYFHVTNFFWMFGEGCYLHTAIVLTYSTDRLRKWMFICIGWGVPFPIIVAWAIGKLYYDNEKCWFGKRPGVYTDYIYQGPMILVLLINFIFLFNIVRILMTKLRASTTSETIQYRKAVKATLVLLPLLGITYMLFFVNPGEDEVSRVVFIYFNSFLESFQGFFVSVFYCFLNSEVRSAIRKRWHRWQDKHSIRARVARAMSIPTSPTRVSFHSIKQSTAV

B1: peptide of SEQ ID NO: 189 (peptide)
peptide: IVLSLD[dV]PIKLK([γGlu-C16 diacid])QILLKQERQKK[Aib]RQKAEKNKQILAQV-NH2
modifications: N-terminus assumed
SMILES: CC[C@H](C)[C@H](N)C(=O)N[C@H](C(=O)N[C@@H](CC(C)C)C(=O)N[C@@H](CO)C(=O)N[C@@H](CC(C)C)C(=O)N[C@@H](CC(=O)O)C(=O)N[C@@H](C(=O)N1CCC[C@H]1C(=O)N[C@H](C(=O)N[C@@H](CCCCN)C(=O)N[C@@H](CC(C)C)C(=O)N[C@@H](CCCCNC(=O)CC[C@H](NC(=O)CCCCCCCCCCCCCCC(=O)O)C(=O)O)C(=O)N[C@@H](CCC(N)=O)C(=O)N[C@H](C(=O)N[C@@H](CC(C)C)C(=O)N[C@@H](CC(C)C)C(=O)N[C@@H](CCCCN)C(=O)N[C@@H](CCC(N)=O)C(=O)N[C@@H](CCC(=O)O)C(=O)N[C@@H](CCCNC(=N)N)C(=O)N[C@@H](CCC(N)=O)C(=O)N[C@@H](CCCCN)C(=O)N[C@@H](CCCCN)C(=O)NC(C)(C)C(=O)N[C@@H](CCCNC(=N)N)C(=O)N[C@@H](CCC(N)=O)C(=O)N[C@@H](CCCCN)C(=O)N[C@@H](C)C(=O)N[C@@H](CCC(=O)O)C(=O)N[C@@H](CCCCN)C(=O)N[C@@H](CC(N)=O)C(=O)N[C@@H](CCCCN)C(=O)N[C@@H](CCC(N)=O)C(=O)N[C@H](C(=O)N[C@@H](CC(C)C)C(=O)N[C@@H](C)C(=O)N[C@@H](CCC(N)=O)C(=O)N[C@H](C(N)=O)C(C)C)[C@@H](C)CC)[C@@H](C)CC)[C@@H](C)CC)C(C)C)C(C)C
B2: peptide of SEQ ID NO: 196 (peptide)
peptide: IVLSLD[dV]PIGLK([γGlu-C16 diacid])QILLKQERQKK[Aib]REQAEKNKRILERV-NH2
modifications: N-terminus assumed
SMILES: CC[C@H](C)[C@H](N)C(=O)N[C@H](C(=O)N[C@@H](CC(C)C)C(=O)N[C@@H](CO)C(=O)N[C@@H](CC(C)C)C(=O)N[C@@H](CC(=O)O)C(=O)N[C@@H](C(=O)N1CCC[C@H]1C(=O)N[C@H](C(=O)NCC(=O)N[C@@H](CC(C)C)C(=O)N[C@@H](CCCCNC(=O)CC[C@H](NC(=O)CCCCCCCCCCCCCCC(=O)O)C(=O)O)C(=O)N[C@@H](CCC(N)=O)C(=O)N[C@H](C(=O)N[C@@H](CC(C)C)C(=O)N[C@@H](CC(C)C)C(=O)N[C@@H](CCCCN)C(=O)N[C@@H](CCC(N)=O)C(=O)N[C@@H](CCC(=O)O)C(=O)N[C@@H](CCCNC(=N)N)C(=O)N[C@@H](CCC(N)=O)C(=O)N[C@@H](CCCCN)C(=O)N[C@@H](CCCCN)C(=O)NC(C)(C)C(=O)N[C@@H](CCCNC(=N)N)C(=O)N[C@@H](CCC(=O)O)C(=O)N[C@@H](CCC(N)=O)C(=O)N[C@@H](C)C(=O)N[C@@H](CCC(=O)O)C(=O)N[C@@H](CCCCN)C(=O)N[C@@H](CC(N)=O)C(=O)N[C@@H](CCCCN)C(=O)N[C@@H](CCCNC(=N)N)C(=O)N[C@H](C(=O)N[C@@H](CC(C)C)C(=O)N[C@@H](CCC(=O)O)C(=O)N[C@@H](CCCNC(=N)N)C(=O)N[C@H](C(N)=O)C(C)C)[C@@H](C)CC)[C@@H](C)CC)[C@@H](C)CC)C(C)C)C(C)C
B3: peptide of SEQ ID NO: 197 (peptide)
peptide: IVLSLD[dV]PIKLK([γGlu-C16 diacid])QILLKQARQK[Aib]QRAQAEKNKRILERV-NH2
modifications: N-terminus assumed
SMILES: CC[C@H](C)[C@H](N)C(=O)N[C@H](C(=O)N[C@@H](CC(C)C)C(=O)N[C@@H](CO)C(=O)N[C@@H](CC(C)C)C(=O)N[C@@H](CC(=O)O)C(=O)N[C@@H](C(=O)N1CCC[C@H]1C(=O)N[C@H](C(=O)N[C@@H](CCCCN)C(=O)N[C@@H](CC(C)C)C(=O)N[C@@H](CCCCNC(=O)CC[C@H](NC(=O)CCCCCCCCCCCCCCC(=O)O)C(=O)O)C(=O)N[C@@H](CCC(N)=O)C(=O)N[C@H](C(=O)N[C@@H](CC(C)C)C(=O)N[C@@H](CC(C)C)C(=O)N[C@@H](CCCCN)C(=O)N[C@@H](CCC(N)=O)C(=O)N[C@@H](C)C(=O)N[C@@H](CCCNC(=N)N)C(=O)N[C@@H](CCC(N)=O)C(=O)N[C@@H](CCCCN)C(=O)NC(C)(C)C(=O)N[C@@H](CCC(N)=O)C(=O)N[C@@H](CCCNC(=N)N)C(=O)N[C@@H](C)C(=O)N[C@@H](CCC(N)=O)C(=O)N[C@@H](C)C(=O)N[C@@H](CCC(=O)O)C(=O)N[C@@H](CCCCN)C(=O)N[C@@H](CC(N)=O)C(=O)N[C@@H](CCCCN)C(=O)N[C@@H](CCCNC(=N)N)C(=O)N[C@H](C(=O)N[C@@H](CC(C)C)C(=O)N[C@@H](CCC(=O)O)C(=O)N[C@@H](CCCNC(=N)N)C(=O)N[C@H](C(N)=O)C(C)C)[C@@H](C)CC)[C@@H](C)CC)[C@@H](C)CC)C(C)C)C(C)C
B4: peptide of SEQ ID NO: 193 (peptide)
peptide: IVLSLD[dV]PIGLK([γGlu-C16 diacid])QILLKQERQKK[Aib]REQAETNKRILERV-NH2
modifications: N-terminus assumed
SMILES: CC[C@H](C)[C@H](N)C(=O)N[C@H](C(=O)N[C@@H](CC(C)C)C(=O)N[C@@H](CO)C(=O)N[C@@H](CC(C)C)C(=O)N[C@@H](CC(=O)O)C(=O)N[C@@H](C(=O)N1CCC[C@H]1C(=O)N[C@H](C(=O)NCC(=O)N[C@@H](CC(C)C)C(=O)N[C@@H](CCCCNC(=O)CC[C@H](NC(=O)CCCCCCCCCCCCCCC(=O)O)C(=O)O)C(=O)N[C@@H](CCC(N)=O)C(=O)N[C@H](C(=O)N[C@@H](CC(C)C)C(=O)N[C@@H](CC(C)C)C(=O)N[C@@H](CCCCN)C(=O)N[C@@H](CCC(N)=O)C(=O)N[C@@H](CCC(=O)O)C(=O)N[C@@H](CCCNC(=N)N)C(=O)N[C@@H](CCC(N)=O)C(=O)N[C@@H](CCCCN)C(=O)N[C@@H](CCCCN)C(=O)NC(C)(C)C(=O)N[C@@H](CCCNC(=N)N)C(=O)N[C@@H](CCC(=O)O)C(=O)N[C@@H](CCC(N)=O)C(=O)N[C@@H](C)C(=O)N[C@@H](CCC(=O)O)C(=O)N[C@H](C(=O)N[C@@H](CC(N)=O)C(=O)N[C@@H](CCCCN)C(=O)N[C@@H](CCCNC(=N)N)C(=O)N[C@H](C(=O)N[C@@H](CC(C)C)C(=O)N[C@@H](CCC(=O)O)C(=O)N[C@@H](CCCNC(=N)N)C(=O)N[C@H](C(N)=O)C(C)C)[C@@H](C)CC)[C@@H](C)O)[C@@H](C)CC)[C@@H](C)CC)C(C)C)C(C)C
B5: peptide of SEQ ID NO: 190 (peptide)
peptide: IVLSLD[dV]PIKLK([γGlu-C16 diacid])QILLKQERQKKQREQAEKNKQILEQV-NH2
modifications: N-terminus assumed
SMILES: CC[C@H](C)[C@H](N)C(=O)N[C@H](C(=O)N[C@@H](CC(C)C)C(=O)N[C@@H](CO)C(=O)N[C@@H](CC(C)C)C(=O)N[C@@H](CC(=O)O)C(=O)N[C@@H](C(=O)N1CCC[C@H]1C(=O)N[C@H](C(=O)N[C@@H](CCCCN)C(=O)N[C@@H](CC(C)C)C(=O)N[C@@H](CCCCNC(=O)CC[C@H](NC(=O)CCCCCCCCCCCCCCC(=O)O)C(=O)O)C(=O)N[C@@H](CCC(N)=O)C(=O)N[C@H](C(=O)N[C@@H](CC(C)C)C(=O)N[C@@H](CC(C)C)C(=O)N[C@@H](CCCCN)C(=O)N[C@@H](CCC(N)=O)C(=O)N[C@@H](CCC(=O)O)C(=O)N[C@@H](CCCNC(=N)N)C(=O)N[C@@H](CCC(N)=O)C(=O)N[C@@H](CCCCN)C(=O)N[C@@H](CCCCN)C(=O)N[C@@H](CCC(N)=O)C(=O)N[C@@H](CCCNC(=N)N)C(=O)N[C@@H](CCC(=O)O)C(=O)N[C@@H](CCC(N)=O)C(=O)N[C@@H](C)C(=O)N[C@@H](CCC(=O)O)C(=O)N[C@@H](CCCCN)C(=O)N[C@@H](CC(N)=O)C(=O)N[C@@H](CCCCN)C(=O)N[C@@H](CCC(N)=O)C(=O)N[C@H](C(=O)N[C@@H](CC(C)C)C(=O)N[C@@H](CCC(=O)O)C(=O)N[C@@H](CCC(N)=O)C(=O)N[C@H](C(N)=O)C(C)C)[C@@H](C)CC)[C@@H](C)CC)[C@@H](C)CC)C(C)C)C(C)C
B6: peptide of SEQ ID NO: 195 (peptide)
peptide: IVLSLD[dV]PIGLK([γGlu-C16 diacid])QILLKQERQKK[Aib]RQQAETNKRILERV-NH2
modifications: N-terminus assumed
SMILES: CC[C@H](C)[C@H](N)C(=O)N[C@H](C(=O)N[C@@H](CC(C)C)C(=O)N[C@@H](CO)C(=O)N[C@@H](CC(C)C)C(=O)N[C@@H](CC(=O)O)C(=O)N[C@@H](C(=O)N1CCC[C@H]1C(=O)N[C@H](C(=O)NCC(=O)N[C@@H](CC(C)C)C(=O)N[C@@H](CCCCNC(=O)CC[C@H](NC(=O)CCCCCCCCCCCCCCC(=O)O)C(=O)O)C(=O)N[C@@H](CCC(N)=O)C(=O)N[C@H](C(=O)N[C@@H](CC(C)C)C(=O)N[C@@H](CC(C)C)C(=O)N[C@@H](CCCCN)C(=O)N[C@@H](CCC(N)=O)C(=O)N[C@@H](CCC(=O)O)C(=O)N[C@@H](CCCNC(=N)N)C(=O)N[C@@H](CCC(N)=O)C(=O)N[C@@H](CCCCN)C(=O)N[C@@H](CCCCN)C(=O)NC(C)(C)C(=O)N[C@@H](CCCNC(=N)N)C(=O)N[C@@H](CCC(N)=O)C(=O)N[C@@H](CCC(N)=O)C(=O)N[C@@H](C)C(=O)N[C@@H](CCC(=O)O)C(=O)N[C@H](C(=O)N[C@@H](CC(N)=O)C(=O)N[C@@H](CCCCN)C(=O)N[C@@H](CCCNC(=N)N)C(=O)N[C@H](C(=O)N[C@@H](CC(C)C)C(=O)N[C@@H](CCC(=O)O)C(=O)N[C@@H](CCCNC(=N)N)C(=O)N[C@H](C(N)=O)C(C)C)[C@@H](C)CC)[C@@H](C)O)[C@@H](C)CC)[C@@H](C)CC)C(C)C)C(C)C

Target: T1, CRF1R receptor (anti-target)
Assay: cell-based or functional assay

| Binder | CRF1/CRF2 ratio (of EC50) | CRF1 EC50 (cAMP, HTRF) [nM] |
| --- | --- | --- |
| B1 | > 500 | > 100 |
| B2 | > 500 | > 100 |
| B3 | > 500 | > 100 |
| B4 | > 500 | > 100 |
| B5 | > 500 | > 100 |
| B6 | > 500 | > 100 |
